B1: defense-associated sirtuin 2 (DSR2), full-length wild type (enzyme, Bacillus subtilis 29R, UniProt P0DXN8 1-1005, looked up)
chain: MVKVDLESKRYGEKLKEVFLMLDNNVVECIKEITESSRNGKLVFFVGAGVSTLSDYPQWWRLVDKYHEELYGSPKKGNYSSDEYLRIPQIFYNVKGEMAFDGILKDFFQVDKPTNPIHDKILAMNPAHVITTNYDNLIDTACWKRGKYFSVISAEEDVANATSSRYLLKVHGDFRKGFKGENVVLKEDDYLNYDQNYPLISNLMKTIIATHTIVFIGYGLGDYNINMLLNWVRKLQKDSFHKPFFIRTDPSPIENETLIYYENKGLRIIDAASLIDSNEYDYLERYSAVMDLLIESQENKFITKDDEVIDYIYGKISPLFALQYIRKIDLKHVFEYDYHFEVNGTVVRHKNKGFGYMERFFELKESCDERSKLSKKQYERFNALFNFFEKNGVICMAKDAGTLNTSIEINSLAYHGKYDVMKKFIEEQSVSIEDDYKKAFFLACLGRWEESYDLYSNIILNSIDESNGCVYYLSQINRYRIYQSITQAVTQFNGLGLLTFGRHYKPFTDEFLARIEREMTNFNIDDLFNGMPFEFQKKYKILEFLSDNQFLYDDTVKLFELTNKVRSEMSEGSYSFGMSSDIVVLLRLYDNLRFLYENCLWSVSFHEFHQYIRNSMSLLIEKAEYERTRDIDELGFSFFGKKSGFFMEYYDFVNISRHFKIDDIKNLERSCSIDKIRFGEQEKIEEYLVGIAEEITKQFSANGMNVVFYTQFISEAKAALYFAKYVKLSEEGLGKIVKALLFYFPERDLDIGKRYVWLERLTKCNELPKSIISIIDDFLVLQAEKHIDQNYSEVSSNGLYSRDYGALIKHFEKNFISKRLSEITLCLTQDKQKQIDFLFKLLPLLSTNAKSHLLSFKSVENINDLMNGIRIGLIDEFTPEHEELIIEYLETRKVNYIVEKEKGIQTFSSNDYMSTFGIWYFLEEINNSKMEEFIGMDDQYDFFVDPENFDYKKFIPSWLKNYNDKLLGKIAGNKHMKHHVIEVLKERVKNSNDKRYLEILMNYFI
notes: DSR2 from Bacillus subtilis 29R, WP_029317421; Cloned into the 2CT-10 vector (Addgene plasmid #55209) with His-MBP tag and TEV site; DSR2-TTP was cloned into a pET-derived vector with an N-terminal His tag; also called WT DSR2; full-length DSR2; source: E. coli Rosetta (DE3), purified (Ni-NTA, TEV cleavage, anion exchange, gel filtration); not shown: His, N-terminal, cleaved; MBP, N-terminal, …
B2: tail tube protein (TTP) from phage SPR, His-tagged (natural protein)
chain: MKTVIQDTADVYFKRKSDGKLVFTAEAQTASFSQAISEEKLRGGIGNKPLYILKSEKEINLTVKNAFFDLEWLAMTQGETIQEETKVKVFDREHGLIVDDTNKVTLKGKPVSDVTFYNKKGLTYKIAVSTDGTYTIPTAFAAAKDKLTAVYQIEKVGRRLAIKASKFSERYEVEYRTIAYNPDTEEVYSDIYIQFPNVSPSGEFEMSLENGNALAPEIKFEALADTDTDEMAVVIEASRDENTAAPVEDTTGSTQSSDLGGTTE
notes: tail tube protein of phage SPR, WP_010328117; C-terminal portion aa 240-264 not built in the cryo-EM model of the tube; Cloned into a pET-derived vector with an N-terminal His tag; Alone it polymerises into a tube of hexameric rings (cryo-EM); also called His-tagged TTP; tagged TTP; source: E. coli Rosetta (DE3), purified (Ni-NTA, anion exchange, gel filtration); not shown: His, N-terminal, kept

Experiments:
[1] = target: T1, DSR anti-defense 1 (DSAD1), His-tagged (UniProt Q796A8 1-120); experiment: cryo-EM structure; protein complexes (co-expressed and co-purified) or TTP tube at 0.5 mg/ml on Quantifoil Au grids, Titan Krios 300 kV; details: both partners purified
T1 construct: phage-encoded DSAD1, WP_004399562; aa 1-9 not built in the cryo-EM model; Cloned into a pET-derived vector with an N-terminal His tag; also called anti-DSR2 protein; His-tagged DSAD1; source: E. coli Rosetta (DE3), purified (Ni-NTA, anion exchange, gel filtration); not shown: His, N-terminal, kept
T1 sequence: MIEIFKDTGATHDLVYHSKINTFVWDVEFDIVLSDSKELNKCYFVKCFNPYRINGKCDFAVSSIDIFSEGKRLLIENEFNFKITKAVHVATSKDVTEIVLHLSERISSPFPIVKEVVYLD

[2] = target: B2; experiment: as above; details: both partners purified
[3] = target: the molecule itself; experiment: native gel or EMSA; purified DSR2 at 1 mg/mL in gel-filtration buffer (25 mM Tris-HCl pH 7.5, 150 mM NaCl, 2 mM DTT) on a 5% native gel, 120 V, 40 min, 4 °C, Coomassie staining
[4] = target: the molecule itself; experiment: cryo-EM structure; protein complexes (co-expressed and co-purified) or TTP tube at 0.5 mg/ml on Quantifoil Au grids, Titan Krios 300 kV
[5] = target: B1; experiment: pull-down; N-terminal His-tagged TTP or DSAD1 on Ni-NTA agarose beads, excess untagged DSR2 variants added, 1 h at 4 °C, 25 mM Tris-HCl pH 7.5, 300 mM NaCl, washes with 10 mM imidazole, SDS-PAGE with Coomassie staining; details: both partners purified
[6] = target: T2, DSR2 CTD-only protein (ΔSIR2, aa 304-1005) (Bacillus subtilis 29R, UniProt P0DXN8 304-1005); experiment: as above; details: both partners purified
T2 construct: DSR2 from Bacillus subtilis 29R, WP_029317421, C-terminal domain aa 304-1005; source: E. coli Rosetta (DE3), purified (Ni-NTA, TEV cleavage, anion exchange, gel filtration); not shown: His, N-terminal, cleaved; MBP, N-terminal, cleaved
T2 sequence (looked up): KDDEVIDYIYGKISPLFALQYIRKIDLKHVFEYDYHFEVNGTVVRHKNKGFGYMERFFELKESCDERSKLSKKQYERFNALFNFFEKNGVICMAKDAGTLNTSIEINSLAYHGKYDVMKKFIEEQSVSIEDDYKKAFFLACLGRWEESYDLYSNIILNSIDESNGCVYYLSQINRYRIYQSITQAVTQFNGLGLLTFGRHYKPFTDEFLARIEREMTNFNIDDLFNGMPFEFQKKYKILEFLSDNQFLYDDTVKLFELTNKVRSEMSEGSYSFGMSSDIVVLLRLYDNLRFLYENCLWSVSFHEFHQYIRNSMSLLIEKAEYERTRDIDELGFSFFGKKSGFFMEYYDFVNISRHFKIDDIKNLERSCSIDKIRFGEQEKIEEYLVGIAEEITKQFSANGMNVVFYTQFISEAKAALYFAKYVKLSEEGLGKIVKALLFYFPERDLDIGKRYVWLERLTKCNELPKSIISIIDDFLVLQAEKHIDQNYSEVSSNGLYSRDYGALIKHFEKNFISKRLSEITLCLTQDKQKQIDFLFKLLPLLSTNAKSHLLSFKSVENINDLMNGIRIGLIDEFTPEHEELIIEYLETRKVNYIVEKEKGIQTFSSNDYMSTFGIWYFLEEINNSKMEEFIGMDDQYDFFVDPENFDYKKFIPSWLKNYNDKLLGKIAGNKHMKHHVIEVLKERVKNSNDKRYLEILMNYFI

| Binder | stoichiometry N [1] | stoichiometry N [2] | stoichiometry N [3] | stoichiometry N [4] | binding result [5] | binding result [6] |
| --- | --- | --- | --- | --- | --- | --- |
| B1 | 1 DSAD1 per DSR2 dimer | 4 TTP per DSR2 tetramer | 4 | – | – | – |
| B2 | – | – | – | 6 | binds | binds |

Reference: paper PMC10973363, “Insights into the modulation of bacterial NADase activity by phage proteins” (Nature Communications, 2024)
